What was measured:
S. aureus strain 8325-4 = assay: Viability assay (colony-forming units); assay type: cell-based, Staphylococcus aureus; conditions: 50 U of ClyS, in 30 min
Experimental: (§1) The unit activity of ClyS was defined by measuring the spectrophotometric loss of turbidity, indicative of cell lysis, of S. aureus 8325-4 cells upon adding serial dilutions of ClyS. In our assays, 5 micrograms of ClyS corresponded to 1 U of lytic activity. When 50 U of ClyS was added to exponentially growing 8325-4 cells the OD600 dropped to baseline within 5 min (FIG. 7). To confirm that the observed cell lysis corresponds to cell death, staphylococcal viability was determined by enumerating aliquots from the lytic reaction at various time points.
(§2) The viability assay of ClyS was tested as previously described (Nelson et al, 2001). Briefly, log phase cultures of S. aureus strain 8325-4 were resuspended in PB to OD600 of 0.8-1.0. 50 U of ClyS or the corresponding volume of PB was added to bacterial cells and aliquots were removed, serially diluted, and plated at 1, 5, 10, 30, and 60 minutes to assess the viability of the treated and control cells. All experiments were performed in triplicate. The activity of ClyS on various bacterial strains was tested as described previously (Schuch et al, 2002). Briefly, log phase bacterial cells were treated with 50 U of ClyS at 37° C. for 15 minutes. The samples were serially diluted and plated. Control experiments with the addition of phosphate buffer (pH 7.0) were performed under the same conditions.

S. aureus 8325-4 cells = assay: Spectrophotometric loss of turbidity (OD600) lytic assay; assay type: cell-based, Staphylococcus aureus
Experimental: as §1
ClyS activity was measured as previously described (Daniel et al, 2001), with some modifications. Briefly, S. aureus strain 8325-4 was grown to an OD600 of 0.25-0.3, centrifuged, and resuspended in PB to a final OD600 of 0.8-1.0. Two-fold serial dilutions of purified ClyS […] were added to 100 μl of bacterial suspension in 96-well plates (Costar) and the decrease in OD600 was monitored by a Spectramax Plus 384 spectrophotometer (Molecular Devices) over 30 min at 37° C. ClyS activity in units per milliliter was defined as the reciprocal of the highest dilution of lysin that decreased the absorbance by 50% in 15 minutes.

[1] = Solubility of expressed lysins and chimeras
Experimental: In another embodiment, the lysin is a chimeric protein that comprises an endopeptidase domain of the S. aureus Twort lysin upstream of the phiNM3 CWT domain (SEQ ID NO:1). The chimeric polypeptide is preferably sufficiently soluble in phosphate buffered saline (PBS). Preferred levels of solubility in PBS for the chimeric lysins is at least about 1 mg/ml and more preferably at least about 3 mg/mL. in PBS. […] One example of such a lysin is provided in SEQ ID NO:2 (AD127), shown in FIG. 5A and consisting of the Twort lysin endopeptidase domain attached to the phiNM3 CWT domain (SEQ ID NO:1). The isolated polypeptide of SEQ ID NO:2 (AD 127) was constructed by engineering S. epidermidis autolysin amidase and Twort lysin endopeptidase domains upstream of phiNM3 CWT domain, respectively.
Traditionally, Bacillus-specific lysins are expressed at high levels and are soluble in E. coli. Therefore, our first attempt was to engineer a 16-amino acid peptide (4) that is conserved in several S. aureus-specific lysins (Lu J Z, Fujiwara T, Komatsuzawa H, Sugai M, Sakon J. 2006. Cell wall-targeting domain of glycylglycine endopeptidase distinguishes among peptidoglycan cross-bridges. (Lue et al. (2006) J. Biol. Chem. 281(1):549-58) The catalytic domain of the Bacillus-specific lysin PlyB was used to generate chimera AD 103 (FIG. 4) (SEQ ID NO: 13). The chimeras were tested for expression, solubility and activity. Then the entire C-terminal CWT domain of PlyB (6) was replaced by the putative C-terminal domain of S. aureus phage Twort lysin (8) to obtain AD 105 (SEQ ID NO: 14). […] Since the lysostaphin catalytic domain […] (10) in AD 112 was of bacterial origin, we attempted to engineer a phage-derived catalytic domain upstream of the lysostaphin CWT. For this, the endopeptidase domain in Twort lysin (14) was used to construct chimera AD 119 (SEQ ID NO:3).

[2] = test system: S. epidermidis including the biofilm-forming strain RP62A; assay: Muralytic activity on bacterial strains, Set II; assay type: cell-based; conditions: 50 U of ClyS, 15 minutes
Experimental: (§3) Muralytic activity of ClyS was tested on a number of bacterial strains representing a variety of species which were divided into sets (Table 1 and FIG. 10). Set I consisted of S. aureus strains including methicillin-sensitive S. aureus (MSSA) and MRSA. ClyS was active against MSSA and MRSA although differences were observed between S. aureus strains. Set II consisted of different species of staphylococci including S. epidermidis, S. simulans and S. sciuri. […] Set III consisted of a mix of Gram-positive and Gram-negative bacteria including representatives of group A, B, C and E streptococci, oral streptococcal species including S. gordonli, and S. salivarius, as well as S. uberis, Bacillus cereus, Pseudomonas aeruginosa and E. coli.
as §2

S. sciuri = assay: Muralytic activity on bacterial strains, Set II; assay type: cell-based; conditions: 50 U of ClyS, 15 minutes
Experimental: as §3, §2

S. simulans = assay: Muralytic activity on bacterial strains, Set II; assay type: cell-based; conditions: 50 U of ClyS, 15 minutes
Experimental: as §3, §2

VISA strain Mu50 = assay: Checkerboard broth-microdilution assay; assay type: cell-based, Staphylococcus aureus; conditions: VISA strain Mu50
Excerpt: (§4) We used the checkerboard broth-microdilution assay to test the interaction of ClyS with vancomycin and with oxacillin. […] Isobolograms for ClyS with vancomycin and ClyS with oxacillin was plotted by transcribing the enzyme concentrations along the inhibitory line on the microtiter plate in an x/y plot.

MRSA strain COL = assay: Checkerboard broth-microdilution assay; assay type: cell-based, Staphylococcus aureus
Excerpt: as §4

staphylococci = assay: Lytic activity of chimera lysates against staphylococci; assay type: cell-based; conditions: qualitative
S. aureus = assay: Lytic assays of chimeric lysins against S. aureus; assay type: cell-based, Staphylococcus aureus; conditions: for lytic/killing activity against S. aureus: qualitative
Excerpt: For this, the endopeptidase domain in Twort lysin (14) was used to construct chimera AD 119 (SEQ ID NO:3). […] To overcome low expression of AD 127 construct, the entire chimera gene was cloned into expression vector pJML6 to generate pAD 138.

B1: ClyS: chimeric lysin: Twort lysin endopeptidase domain attached to the phiNM3 CWT domain, 280 amino acid residues (protein)
chain: METLKQAESYIKSKVNTGTDFDGLYGYQCMDLAVDYIYHVTDGKIRMWGNAKDAINNSFGGTATVYKNYPAFRPKYGDVVVWTTGNFATYGHIAIVTNPDPYGDLQYVTVLEQNWNGNGIYKTELATIRTHDYTGITHFIRPNFATESSVKKKDTKKKPKPSNRDGLNKDKIVYDRTNINYNMVLQGKSASKITVGSKAPYNLKWSKGAYFNAKIDGLGATSATRYGDNRTNYRFDVGQAVYAPGTLIYVFEIIDGWCRIYWNNHNEWIWHERLIVKEVF
modifications: Chimeric of Staphylococcus aureus bacteriophage Twort domain and Staphylococcus aureus phage phiNM3 CWT domain
notes: chimeric lysin: Twort lysin endopeptidase domain attached to the phiNM3 CWT domain, 280 amino acid residues
With B1 the decrease in viability (S. aureus strain 8325-4) was “approximately 3 logs”, the “time for OD600 to drop to baseline” value (S. aureus 8325-4 cells; 50 U of ClyS, exponentially growing 8325-4 cells) was ≤ 5 min and the “amount corresponding to 1 U of lytic activity” value (S. aureus 8325-4 cells; unit = reciprocal of highest dilution that decreased absorbance by 50% in 15 minutes) was 5 micrograms. The solubility [1] was “very high”, the “muralytic activity against S. epidermidis” value [2] was “active” and the “muralytic activity against S. sciuri” value (S. sciuri) was “active”. The “muralytic activity against S. simulans” value (S. simulans) was “active”, the MIC (VISA strain Mu50) was 6 U/ml and the MIC (MRSA strain COL) was 8 U/ml. The “lytic activity against staphylococci” value (staphylococci) was “active”, the activity (S. aureus; AD 127 from the pAD138 construct) was “very high” and the “lytic/killing activity against S. aureus” value (S. aureus; listed as AD 127) was “very high activity”. For the same molecule, the “lytic/killing activity against S. aureus” value (S. aureus; listed as AD127) was “little or no killing activity”.
